Source: patent US20130115189A1

Key:
IL-1 receptor [1] = test: homogeneous time-resolved fluorescence (HTRF) receptor binding assay
IL-1 receptor [2] = test: cell-based or functional assay

Row | Substance | IC50 (IL-1 receptor [1]) | Bioactivity reduction (IL6 release, HeLa cells), ratio of EC50 to MA-wt (IL-1 receptor [2]) | Bioactivity reduction (Cytotoxicity, A375 cells), ratio of LC50 to MA-wt (IL-1 receptor [2])
1 | MDI-wt-His6 (from UniProt P01584 118-269) (ligand) | 1340 nM | 43 fold | 700 fold
2 | MDI-D145K-CG (from UniProt P01584 118-269) (ligand) | 6770 nM | 60000 fold | 600000 fold
3 | MA-D145K-His6 (from UniProt P01584 117-269) (ligand) | 28 nM |  | 
4 | MDI-D145K-His6 (from UniProt P01584 118-269) (ligand) | 4810 nM | 60000 fold | 600000 fold
5 | MA-wt-CG (from UniProt P01584 117-269) (ligand) | 31 nM |  | 

Stronger by IC50 (IL-1 receptor [1]), values ahead:

Row | IC50 (IL-1 receptor [1]) | Bioactivity reduction (IL6 release, HeLa cells), ratio of EC50 to MA-wt (IL-1 receptor [2]) | Substance | Bioactivity reduction (Cytotoxicity, A375 cells), ratio of LC50 to MA-wt (IL-1 receptor [2])
6 | 23 nM |  | MA-wt-His6 (from UniProt P01584 117-269) (ligand) | 
7 | 20 nM |  | MA-wt (interleukin-1β wild type sequence containing an N-terminal methionine) (from UniProt P01584 117-269) (ligand) | 
